Test results published in US20090131317A1, “COMPOUNDS AND PEPTIDES THAT BIND THE TRAIL RECEPTOR” (AFFYMAX, INC., priority 2007, published 2009).
Numbered stars: 1 amine (or outer) side, 2 acyl side, 3 side chain; on linkers, the order of the positions; unused ones are H or OH. Bridge positions count the residues as written; N and C are the ends. Peptide text beside a SMILES is read from it. I, II: the chains in the order shown. TSAT = Tris-succinimidyl aminotriacetate linker; Isophthaloyl = O=C(c1cccc(C(=O)[*:2])c1)[*:1]; X1 = O=C(CN(CC(=O)[*:2])CC(=O)[*:3])[*:1]; Diglycolyl = O=C(COCC(=O)[*:2])[*:1]; DIG = diglycolic acid linker

Assays:
[1] = test system: Jurkat cells; type: cell-based
Experimental: The apoptotic activity of test peptides is measured using a Jurkat proliferation assay.
Jurkat cells are obtained from the American Type Culture Collection (ATCC, Manassas, Va.) and are maintained in RPMI-1640 medium supplemented with 10% FBS, 100 U/mL penicillin, and 100 […] (Growth Medium). […] Cells are resuspended at a density of 1×10^6 cells/mL in Growth Medium, and 50 μl cells is added to each well of the assay plates. The plates are incubated in a 37° C., 5% CO2 incubator for 24-48 hours. Proliferation is assessed by adding 10 μL of MTT stock solution (ATCC, Manassas, Va.) to the wells. The plates are incubated in a 37° C., 5% CO2 incubator for another 2-4 hours, followed by the addition of 100 μL of 20% SDS with 0.01 N HCl. After incubation overnight in a 37° C., 5% CO2 incubator, the plates are quantified by reading the optical density at a wavelength of 595 nm (OD595) in a SpectraMax® M5 microplate reader (Molecular Devices, Sunnyvale, Calif.). The data are analyzed using GraphPad Prism® software (La Jolla, Calif.) to calculate IC50 values from a 4-parameter logistic equation.

[2] = test system: HCT-116 cells; type: cell-based
Experimental: The apoptotic activity of test peptides is measured using an HCT-116 proliferation assay. The HCT-116 assay is used to measure the activity of TRAIL R2 agonist peptides using the colon carcinoma cell line HCT-116 (ATCC, Manassas, Va.).
In more detail, a peptide homotrimer based on the peptide monomer sequence of SEQ ID NO: 19 (See, FIG. 8B) is tested for functional activity using the HCT-116 proliferation assay. HCT-116 cells are incubated for one to two days in the presence of serially diluted peptide dimers or peptide trimers. […]
Cell viability is measured using an MTT colorimetric viability assay, a colorimetric assay that analyzes the number of viable cells by measuring the ability of mitochondrial dehydrogenase enzyme in the viable cells to cleave tetrazolium salts added to the culture medium [See, Mosmann (1983) J. Immunol. […] Using this assay, cell proliferation is assessed after 24-48 hours by adding 10 μL of MTT stock solution (ATCC, Manassas, Va.) to the wells. […] After incubation overnight in a 37° C., 5% CO2 incubator, the plates are quantified by reading the optical density at 595 nm (OD595) in a SpectraMax M5 microplate reader (Molecular Devices, Sunnyvale, Calif.). The data are analyzed using GraphPad® Prism software (La Jolla, Calif.) to calculate IC50 values from a 4-parameter logistic equation.

[3] = target: T1, Recombinant human TRAIL R2-Fc fusion protein (R&D Systems) (human, UniProt O14763 52-182, limits assumed); test: AlphaQuest competition: displaces biotinylated TRAIL ligand from human TRAIL R2-Fc
T1 construct: Bought from R&D Systems; held on protein A-coated acceptor beads in the AlphaQuest/AlphaScreen assay; also called TRAIL R2 receptor; R2 receptor; not shown: Fc part of the bought fusion protein
Experimental: The plates are sealed with adhesive sealing film and covered with aluminum foil, centrifuged at 600 rpm for 30 seconds and incubated overnight in the dark. […] The raw data are analyzed using GraphPad Prism® software (La Jolla, Calif.) to calculate IC₅₀ values from a 4-parameter logistic equation.
The binding affinity of the antagonist peptides and peptide-based compounds of the invention are measured according to the AlphaQuest® Competitive Binding Assay, described above, in Example 1.1. The IC₅₀ values are determined for each test peptide or test compound. The compounds tested are homodimers and homotrimers of peptides comprising the amino sequence set forth in SEQ ID NOs: 33 and 34, linked by DIG or TSAT, respectively.

[4] = target: TRAIL R2 receptor on HCT-116 or Jurkat cells (UniProt O14763 56-440, limits assumed); test: cell-based or functional assay

Molecule: CC[C@H](C)[C@@H]1NC(=O)[C@H](CCCNC(=N)N)NC(=O)[C@H](CC(N)=O)NC(=O)[C@H](CC(=O)O)NC(=O)[C@H](CC(C)C)NC(=O)[C@@H](NC(=O)[C@H](CC(=O)O)NC(=O)[C@H](Cc2c[nH]c3ccccc23)NC(C)=O)CSSC[C@@H](C(=O)N[C@H](C(=O)N[C@@H](CCCCNC(=O)c2cccc(C(=O)NCCCC[C@H](NC(=O)[C@@H](NC(=O)[C@@H]3CSSC[C@H](NC(=O)[C@H](CC(=O)O)NC(=O)[C@H](Cc4c[nH]c5ccccc45)NC(C)=O)C(=O)N[C@@H](CC(C)C)C(=O)N[C@@H](CC(=O)O)C(=O)N[C@@H](CC(N)=O)C(=O)N[C@@H](CCCNC(=N)N)C(=O)N[C@@H]([C@@H](C)CC)C(=O)NCC(=O)N[C@@H](CCCNC(=N)N)C(=O)N[C@@H](CCCNC(=N)N)C(=O)N[C@@H](CCC(N)=O)C(=O)N3)C(C)C)C(=O)N[C@@H](CC(C)C)C(N)=O)c2)C(=O)N[C@@H](CC(C)C)C(N)=O)C(C)C)NC(=O)[C@H](CCC(N)=O)NC(=O)[C@H](CCCNC(=N)N)NC(=O)[C@H](CCCNC(=N)N)NC(=O)CNC1=O [SEQ ID NO: 19 homodimer (IPA linker)] (I: Ac-WDCLDNRIGRRQCVKL-NH2 / II: Ac-WDCLDNRIGRRQCVKL-NH2; disulfide I:3-I:13, II:3-II:13; linker I:15-II:15 via Isophthaloyl)
- EC50 [1]: 1400 to 4020 nM

Molecule: I: Ac-WDCLDNRIGRRQCVKL-NH2 / II: Ac-WDCLDNRIGRRQCVKL-NH2 / III: Ac-WDCLDNRIGRRQCVKL-NH2 (disulfide I:3-I:13, II:3-II:13, III:3-III:13 (inferred); linker I:15-II:15-III:15 via X1 (inferred)) [SEQ ID NO: 19 homotrimer]
- EC50 [2]: ~480 nM

Molecule: CC(=O)N[C@@H](Cc1c[nH]c2ccccc12)C(=O)N[C@@H](CC(=O)O)C(=O)N[C@H]1CSSC[C@@H](C(=O)N[C@H](C(=O)N[C@@H](CCCNC(=N)N)C(=O)N[C@@H](CC(C)C)C(=O)N[C@@H](CCC(=O)O)C(=O)N[C@@H](CCCNC(=N)N)C(=O)N[C@@H](CCCCNC(=O)COCC(=O)NCCCC[C@H](NC(=O)[C@H](CCCNC(=N)N)NC(=O)[C@H](CCC(=O)O)NC(=O)[C@H](CC(C)C)NC(=O)[C@H](CCCNC(=N)N)NC(=O)[C@@H](NC(=O)[C@@H]2CSSC[C@H](NC(=O)[C@H](CC(=O)O)NC(=O)[C@H](Cc3c[nH]c4ccccc34)NC(C)=O)C(=O)N[C@@H](CC(C)C)C(=O)N[C@@H](C(C)C)C(=O)N[C@@H](CC(=O)O)C(=O)N[C@@H](CCCNC(=N)N)C(=O)N3CCC[C@H]3C(=O)NCC(=O)N[C@@H](CCCNC(=N)N)C(=O)N[C@@H](CCCNC(=N)N)C(=O)N[C@@H](CCC(N)=O)C(=O)N2)C(C)C)C(N)=O)C(N)=O)C(C)C)NC(=O)[C@H](CCC(N)=O)NC(=O)[C@H](CCCNC(=N)N)NC(=O)[C@H](CCCNC(=N)N)NC(=O)CNC(=O)[C@@H]2CCCN2C(=O)[C@H](CCCNC(=N)N)NC(=O)[C@H](CC(=O)O)NC(=O)[C@H](C(C)C)NC(=O)[C@H](CC(C)C)NC1=O [SEQ ID NO: 30 homodimer] (I: Ac-WDCLVDRPGRRQCVRLERK-NH2 / II: Ac-WDCLVDRPGRRQCVRLERK-NH2; disulfide I:3-I:13, II:3-II:13 (inferred); linker I:19-II:19 via Diglycolyl (inferred))
- EC50 [1]: 611 to 1090 nM

Molecule: CC(=O)N[C@@H](Cc1c[nH]c2ccccc12)C(=O)N[C@@H](CC(=O)O)C(=O)N[C@H]1CSSC[C@@H](C(=O)N[C@H](C(=O)N[C@@H](CCCCNC(=O)COCC(=O)NCCCC[C@H](NC(=O)[C@@H](NC(=O)[C@@H]2CSSC[C@H](NC(=O)[C@H](CC(=O)O)NC(=O)[C@H](Cc3c[nH]c4ccccc34)NC(C)=O)C(=O)N[C@@H](CC(C)C)C(=O)N[C@@H](C(C)C)C(=O)N[C@@H](CC(=O)O)C(=O)N[C@@H](CCCNC(=N)N)C(=O)N3CCC[C@H]3C(=O)NCC(=O)N[C@@H](CCCNC(=N)N)C(=O)N[C@@H](CCCNC(=N)N)C(=O)N[C@@H](CCC(N)=O)C(=O)N2)C(C)C)C(=O)N[C@@H](CC(C)C)C(=O)N[C@@H](CCC(=O)O)C(=O)N[C@@H](CCCNC(=N)N)C(N)=O)C(=O)N[C@@H](CC(C)C)C(=O)N[C@@H](CCC(=O)O)C(=O)N[C@@H](CCCNC(=N)N)C(N)=O)C(C)C)NC(=O)[C@H](CCC(N)=O)NC(=O)[C@H](CCCNC(=N)N)NC(=O)[C@H](CCCNC(=N)N)NC(=O)CNC(=O)[C@@H]2CCCN2C(=O)[C@H](CCCNC(=N)N)NC(=O)[C@H](CC(=O)O)NC(=O)[C@H](C(C)C)NC(=O)[C@H](CC(C)C)NC1=O [SEQ ID NO: 31 homodimer] (I: Ac-WDCLVDRPGRRQCVKLER-NH2 / II: Ac-WDCLVDRPGRRQCVKLER-NH2; disulfide I:3-I:13, II:3-II:13 (inferred); linker I:15-II:15 via Diglycolyl (inferred))
- EC50 [1]: > 22000 nM

Molecule: CC(=O)N[C@@H](Cc1c[nH]c2ccccc12)C(=O)N[C@@H](CC(=O)O)C(=O)N[C@H]1CSSC[C@@H](C(=O)N[C@H](C(=O)N[C@@H](CCCNC(=N)N)C(=O)N[C@@H](CC(C)C)C(=O)N[C@@H](CCC(=O)O)C(=O)N[C@@H](CCCCNC(=O)COCC(=O)NCCCC[C@H](NC(=O)[C@H](CCC(=O)O)NC(=O)[C@H](CC(C)C)NC(=O)[C@H](CCCNC(=N)N)NC(=O)[C@@H](NC(=O)[C@@H]2CSSC[C@H](NC(=O)[C@H](CC(=O)O)NC(=O)[C@H](Cc3c[nH]c4ccccc34)NC(C)=O)C(=O)N[C@@H](CC(C)C)C(=O)N[C@@H](C(C)C)C(=O)N[C@@H](CC(=O)O)C(=O)N[C@@H](CCCNC(=N)N)C(=O)N3CCC[C@H]3C(=O)NCC(=O)N[C@@H](CCCNC(=N)N)C(=O)N[C@@H](CCCNC(=N)N)C(=O)N[C@@H](CCC(N)=O)C(=O)N2)C(C)C)C(N)=O)C(N)=O)C(C)C)NC(=O)[C@H](CCC(N)=O)NC(=O)[C@H](CCCNC(=N)N)NC(=O)[C@H](CCCNC(=N)N)NC(=O)CNC(=O)[C@@H]2CCCN2C(=O)[C@H](CCCNC(=N)N)NC(=O)[C@H](CC(=O)O)NC(=O)[C@H](C(C)C)NC(=O)[C@H](CC(C)C)NC1=O [SEQ ID NO: 29 homodimer] (I: Ac-WDCLVDRPGRRQCVRLEK-NH2 / II: Ac-WDCLVDRPGRRQCVRLEK-NH2; disulfide I:3-I:13, II:3-II:13 (inferred); linker I:18-II:18 via Diglycolyl (inferred))
- EC50 [1]: 1300 to 1660 nM

Molecule: Ac-WDCLDNRIGK(TSAT)RQCVRA-NH2 (disulfide 3-13 (inferred); also: homotrimer joined by TSAT linker at Lys10) [peptide homotrimer based on the monomer amino acid sequence of SEQ ID NO: 34, TSAT linker]
- IC50 [3]: 0.038 nM
- EC50, Jurkat antagonist assay (inhibition of TRAIL ligand-induced apoptosis) [4]: 323 nM

Molecule: Ac-WDCLDNRIGK(DIG)RQCVRA-NH2 (disulfide 3-13 (inferred); also: homodimer joined by DIG linker at Lys10, also called 34 Dimer DIG) [peptide homodimer based on the monomer amino acid sequence of SEQ ID NO: 34, DIG linker]
- IC50 [3]: 0.06 nM
- EC50, Jurkat antagonist assay (inhibition of TRAIL ligand-induced apoptosis) [4]: 1580 nM

Molecule: Ac-WDCLDNRIGK(DIG)RQCVR-NH2 (disulfide 3-13 (inferred); also: homodimer joined by DIG linker at Lys10, also called 33 Dimer DIG) [peptide homodimer based on the monomer amino acid sequence of SEQ ID NO: 33, DIG linker]
- IC50 [3]: 0.111 nM
- EC50, Jurkat antagonist assay (inhibition of TRAIL ligand-induced apoptosis) [4]: 5440 nM
